Assay [1] addresses T1, human glutamate receptor D2 amino-terminal domain (human, UniProt O43424 24-440).
T1 sequence (looked up): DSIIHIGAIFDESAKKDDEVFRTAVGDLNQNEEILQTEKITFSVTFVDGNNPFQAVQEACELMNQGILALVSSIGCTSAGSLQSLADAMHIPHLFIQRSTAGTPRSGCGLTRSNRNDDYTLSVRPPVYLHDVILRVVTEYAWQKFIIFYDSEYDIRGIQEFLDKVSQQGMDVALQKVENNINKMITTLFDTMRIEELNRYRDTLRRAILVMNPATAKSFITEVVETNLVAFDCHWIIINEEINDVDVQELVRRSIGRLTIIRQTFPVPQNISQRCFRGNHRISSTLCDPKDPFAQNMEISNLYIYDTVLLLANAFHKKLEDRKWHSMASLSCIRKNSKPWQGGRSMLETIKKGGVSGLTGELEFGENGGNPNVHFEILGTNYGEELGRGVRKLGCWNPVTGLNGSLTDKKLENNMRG
Briefly: SPR. A general note: Surface plasmon resonance follows binding to a sensor surface in real time, without labels.

The target of assay [2] is T2, mouse glutamate receptor A4 amino-terminal domain (mouse, UniProt Q9Z2W8 21-420).
T2 sequence (looked up): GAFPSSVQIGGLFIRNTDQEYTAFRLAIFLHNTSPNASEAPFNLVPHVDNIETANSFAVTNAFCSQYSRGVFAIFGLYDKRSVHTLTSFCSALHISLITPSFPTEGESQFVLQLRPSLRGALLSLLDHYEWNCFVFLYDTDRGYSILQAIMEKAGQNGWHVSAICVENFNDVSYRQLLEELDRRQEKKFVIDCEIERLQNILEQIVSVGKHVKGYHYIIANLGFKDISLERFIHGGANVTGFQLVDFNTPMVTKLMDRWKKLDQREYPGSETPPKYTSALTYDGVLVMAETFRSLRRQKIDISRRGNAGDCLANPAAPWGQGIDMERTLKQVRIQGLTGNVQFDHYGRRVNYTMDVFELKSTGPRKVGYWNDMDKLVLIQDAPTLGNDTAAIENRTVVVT
Put plainly: SPR.

B1: Cbln1, biotinylated on a C-terminal Avitag (immobilised in SPR) (natural protein, UniProt P23435 22-193, looked up)
chain: QNETEPIVLEGKCLVVCDSNPTSDPTGTALGISVRSGSAKVAFSAIRSTNHEPSEMSNRTMIIYFDQVLVNIGNNFDSERSTFIAPRKGIYSFNFHVVKVYNRQTIQVSLMLNGWPVISAFAGDQDVTREAASNGVLIQMEKGDRAYLKLERGNLMGGWKYSTFSGFLVFPL
modifications: biotin on the Avitag (in vivo biotinylation by BirA)
The Kd is the constant that tells how readily two partners part at equilibrium. Lower therefore signals a tighter complex. The molecule B1 had a dissociation constant (Kd) in assay [1] of over 100 µM.

B2: pentraxin domain of human neuronal pentraxin-1, biotinylated on a C-terminal Avitag (immobilised in SPR) (domain or fragment, UniProt Q15818 224-431, looked up)
chain: PGDKFQLTFPLRTNYMYAKVKKSLPEMYAFTVCMWLKSSATPGVGTPFSYAVPGQANELVLIEWGNNPMEILINDKVAKLPFVINDGKWHHICVTWTTRDGVWEAYQDGTQGGSGENLAPYHPIKPQGVLVLGQEQDTLGGGFDATQAFVGELAHFNIWDRKLTPGEVYNLATCSTKALSGNVIAWAESHIEIYGGATKWTFEACRQI
modifications: biotin on the Avitag (in vivo biotinylation by BirA)
Turning to B2, the Kd in assay [2] is 11 ± 0.9 µM.
